Data reported in US20130183334A1.

Key:
Assay in all cases: cell-based or functional assay
[1] = molecular target: HIV-1 NL4-3 Gag with HIV-1/SIVmac239 p6 chimera 17-23(b) (HIV-1 (NL4-3); SIVmac239)
[2] = molecular target: HIV-1 NL4-3 Gag with HIV-1/SIVmac239 p6 chimera 17-24 (HIV-1 (NL4-3); SIVmac239)
[3] = molecular target: HIV-1 NL4-3 Gag with HIV-1/SIVmac239 p6 chimera 17-25 (HIV-1 (NL4-3); SIVmac239)
[4] = molecular target: HIV-1 NL4-3 Gag with HIV-1/SIVmac239 p6 chimera 17-26 (HIV-1 (NL4-3); SIVmac239)
[5] = molecular target: HIV-1 NL4-3 Gag with HIV-1/SIVmac239 p6 chimera 17-27 (HIV-1 (NL4-3); SIVmac239)
[6] = molecular target: HIV-1 NL4-3 Gag with HIV-1/SIVmac239 p6 chimera 17-28 (HIV-1 (NL4-3); SIVmac239)
[7] = molecular target: HIV-1 NL4-3 Gag with HIV-1/SIVmac239 p6 chimera 17-38 (HIV-1 (NL4-3); SIVmac239)
[8] = molecular target: HIV-1 NL4-3 Gag with HIV-1/SIVmac239 p6 chimera 17-48 (HIV-1 (NL4-3); SIVmac239)
[9] = molecular target: HIV-1 NL4-3 Gag with p6 point mutation F15A (HIV-1 (NL4-3)) (UniProt P12493)
[10] = molecular target: HIV-1 NL4-3 Gag with p6 point mutation F17A (HIV-1 (NL4-3)) (UniProt P12493)

HIV-1 Vpr, myc-tagged (expression vector pcVpr.myc)
80: Vpr packaging into virions (immunoblot of pelleted virions) (% decrease against wild-type) [9] | Vpr packaging into virions (immunoblot of pelleted virions) (% decrease against wild-type) [10]
0.33: Vpr packaging into virions (immunoblot of pelleted virions) (fold of wild-type) [1] | Vpr packaging into virions (immunoblot of pelleted virions) (fold of wild-type) [2] | Vpr packaging into virions (immunoblot of pelleted virions) (fold of wild-type) [3] | Vpr packaging into virions (immunoblot of pelleted virions) (fold of wild-type) [4] | Vpr packaging into virions (immunoblot of pelleted virions) (fold of wild-type) [5] | Vpr packaging into virions (immunoblot of pelleted virions) (fold of wild-type) [7] | Vpr packaging into virions (immunoblot of pelleted virions) (fold of wild-type) [8]
70: Vpr packaging into virions (immunoblot of pelleted virions) (% of wild-type) [6]
